Assay results reported in patent CN113912728A (QYUNS THERAPEUTICS CO LTD, dated 2022).
Values belong to the molecule of their own block, whether it stands above or below them.

Key:
[1] = molecular target: T1, 人白介素-33 (human interleukin-33) (human, UniProt O95760 112-270); test: SPR, Biacore T200, 25℃, antibody captured on Protein A chip, IL-33 as analyte, 1:1 model
T1 sequence: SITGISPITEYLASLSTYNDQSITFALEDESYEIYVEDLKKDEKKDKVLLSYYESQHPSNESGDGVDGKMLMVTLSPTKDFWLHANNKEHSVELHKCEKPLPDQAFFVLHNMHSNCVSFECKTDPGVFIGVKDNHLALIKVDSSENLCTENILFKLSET

[2] = molecular target: T1, 人白介素-33 (human interleukin-33); test: cell-based or functional assay
[3] = molecular target: 天然人白介素-33 (natural human interleukin-33 from HFL-1 cell lysate) (human) (UniProt O95760); test: cell-based or functional assay
[4] = molecular target: T2, 天然人白介素-33 (natural human interleukin-33 from HFL-1 cell lysate) (human, UniProt O95760 1-270, limits assumed); test: cell-based or functional assay
T2 sequence (looked up): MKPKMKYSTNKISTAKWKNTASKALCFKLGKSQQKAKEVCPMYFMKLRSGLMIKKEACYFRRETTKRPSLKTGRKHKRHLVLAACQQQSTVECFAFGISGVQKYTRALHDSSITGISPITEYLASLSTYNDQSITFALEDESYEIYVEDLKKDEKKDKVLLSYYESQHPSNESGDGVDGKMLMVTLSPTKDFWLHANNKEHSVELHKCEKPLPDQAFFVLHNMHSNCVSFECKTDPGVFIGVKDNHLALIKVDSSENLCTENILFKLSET

Kd [1]: 0.869 nM
koff [1]: 0.000369 s⁻¹
kon [1]: 424000 M⁻¹ s⁻¹
中和人白介素-33诱导人全血释放IFN-γ, IC50 [2]: 31.9 ng/mL
中和人白介素-33诱导的KU812细胞释放IL-5, IC50 [2]: 44 ng/mL
抑制重组人白介素-33诱导HEK Blue IL-33细胞中NF-κB/AP-1信号转导 (SEAP reporter), IC50 [2]: 6.05 ng/mL
抑制天然人白介素-33诱导HEK Blue IL-33细胞中NF-κB/AP-1信号转导 (SEAP reporter), IC50 [3]: 2.5 ng/mL
Molecule: Etokimab/ANB020 (antibody)

Kd [1]: 1.23 nM
koff [1]: 0.000481 s⁻¹
kon [1]: 392000 M⁻¹ s⁻¹
中和人白介素-33诱导人全血释放IFN-γ, IC50 [2]: 16 ng/mL
中和人白介素-33诱导的KU812细胞释放IL-5, IC50 [2]: 5.87 ng/mL
抑制重组人白介素-33诱导HEK Blue IL-33细胞中NF-κB/AP-1信号转导 (SEAP reporter), IC50 [2]: 6.67 ng/mL
抑制天然人白介素-33诱导HEK Blue IL-33细胞中NF-κB/AP-1信号转导 (SEAP reporter), IC50 [4]: 3.91 ng/mL
B1: QX007N(HZD78-70) (antibody, V domains shown)
VH: EVQLVESGGGLVQPGGSLRLSCAASGFSLSSYHMIWVRQAPGKGLEWVGVIYPNSNIYYATWAKGRFTISRDNSKNTLYLQMNSLRAEDTAVYYCARTIYVHVYSALSIWGQGTLVTVSS
VL: AFQMTQSPSSVSASVGDRVTITCQASESVLNEVSWYQQKPGKAPKLLIYFASKLASGVPSRFSGSGSGTDFTLTISSLQPEDFATYYCQQDWSMDNIDNAFGGGTKVEIKR
